Data on one protein can be found in publication PMC5620058, “IL-12p35 induces expansion of IL-10 and IL-35-expressing regulatory B cells and ameliorates autoimmune disease” (Nature Communications, 2017).

The series concerns the molecule itself. The experiment in a line: AUC; sedimentation equilibrium, native conditions, non-reducing; peak fraction of Superose-6 further purified by Centricon filtration.

B1: mouse recombinant IL-12p35 (rIL-12p35; HBM-p35-Flag-His) (natural protein, UniProt P43431 23-215, looked up)
chain: RVIPVSGPARCLSQSRNLLKTTDDMVKTAREKLKHYSCTAEDIDHEDITRDQTSTLKTCLPLELHKNESCLATRETSSTTRGSCLPPQKTSLMMTLCLGSIYEDLKMYQTEFQAINAALQNHNHQQIILDKGMLVAIDELMQSLNHNGETLRQKPPVGEADPYRVKMKLCILLHAFSTRVVTINRVMGYLSSA
notes: IL-12p35 (Il12a), mouse; cDNA amplified with the printed primers and cloned behind the honeybee melittin (HBM) secretion signal of pMIB; The same construct was obtained as a monomer (~27 kDa, FPLC fractions 29-30) and as a p35−p35 homodimer (~56-57 kDa, fractions 20-21); also called p35−p35; source: purified (Ni-NTA, Centricon filtration, Sephacryl S-200 and Superose-6 FPLC)
Regarding B1, the “stoichiometry N” value is 2.

As usually defined, the stoichiometry N is a count of units in the complex or per binding partner.
